B1: Complement factor H (Homo sapiens), P08603 (parent)
chain: MRLLAKIICLMLWAICVAEDCNELPPRRNTEILTGSWSDQTYPEGTQAIYKCRPGYRSLGNVIMVCRKGEWVALNPLRKCQKRPCGHPGDTPFGTFTLTGGNVFEYGVKAVYTCNEGYQLLGEINYRECDTDGWTNDIPICEVVKCLPVTAPENGKIVSSAMEPDREYHFGQAVRFVCNSGYKIEGDEEMHCSDDGFWSKEKPKCVEISCKSPDVINGSPISQKIIYKENERFQYKCNMGYEYSERGDAVCTESGWRPLPSCEEKSCDNPYIPNGDYSPLRIKHRTGDEITYQCRNGFYPATRGNTAKCTSTGWIPAPRCTLKPCDYPDIKHGGLYHENMRRPYFPVAVGKYYSYYCDEHFETPSGSYWDHIHCTQDGWSPAVPCLRKCYFPYLENGYNQNYGRKFVQGKSIDVACHPGYALPKAQTTVTCMENGWSPTPRCIRVKTCSKSSIDIENGFISESQYTYALKEKAKYQCKLGYVTADGETSGSITCGKDGWSAQPTCIKSCDIPVFMNARTKNDFTWFKLNDTLDYECHDGYESNTGSTTGSIVCGYNGWSDLPICYERECELPKIDVHLVPDRKKDQYKVGEVLKFSCKPGFTIVGPNSVQCYHFGLSPDLPICKEQVQSCGPPPELLNGNVKEKTKEEYGHSEVVEYYCNPRFLMKGPNKIQCVDGEWTTLPVCIVEESTCGDIPELEHGWAQLSSPPYYYGDSVEFNCSESFTMIGHRSITCIHGVWTQLPQCVAIDKLKKCKSSNLIILEEHLKNKKEFDHNSNIRYRCRGKEGWIHTVCINGRWDPEVNCSMAQIQLCPPPPQIPNSHNMTTTLNYRDGEKVSVLCQENYLIQEGEEITCKDGRWQSIPLCVEKIPCSQPPQIEHGTINSSRSSQESYAHGTKLSYTCEGGFRISEENETTCYMGKWSSPPQCEGLPCKSPPEISHGVVAHMSDSYQYGEEVTYKCFEGFGIDGPAIAKCLGEKWSHPPSCIKTDCLSLPSFENAIPMGEKKDVYKAGEQVTYTCATYYKMDGASNVTCINSRWTGRPTCRDTSCVNPPTVQNAYIVSRQMSKYPSGERVRYQCRSPYEMFGDEEVMCLNGNWTEPPQCKDSTGKCGPPPPIDNGDITSFPLSVYAPASSVEYQCQNLYQLEGNKRITCRNGQWSEPPKCLHPCVISREIMENYNIALRWTAKQKLYSRTGESVEFVCKRGYRLSSRSHTLRTTCWDGKLEYPTCAKR
partner: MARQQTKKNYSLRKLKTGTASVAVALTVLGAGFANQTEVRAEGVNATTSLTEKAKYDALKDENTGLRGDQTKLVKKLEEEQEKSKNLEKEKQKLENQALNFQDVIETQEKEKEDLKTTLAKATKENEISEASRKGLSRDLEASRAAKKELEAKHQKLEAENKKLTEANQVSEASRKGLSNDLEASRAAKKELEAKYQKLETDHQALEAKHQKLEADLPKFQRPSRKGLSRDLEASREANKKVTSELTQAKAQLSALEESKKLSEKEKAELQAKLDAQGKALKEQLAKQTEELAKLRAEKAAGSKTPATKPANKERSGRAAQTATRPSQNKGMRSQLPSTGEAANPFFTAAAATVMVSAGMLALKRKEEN

Variants of: B1
Conditions: with mx_strp9 ennX

| Variant | effect of a mutation on the interaction |
| --- | --- |
| Y402H | decreasing interaction strength |

Source: IntAct's records for PubMed 18627465
